Measured values as given in IntAct's records for PubMed 17167418.

B1: Synaptotagmin-2 (Mus musculus), P46097 (parent)
chain: MRNIFKRNQEPNVAPATTTATMPLAPVAPADNSTESTGPGESQEDMFAKLKEKFFNEINKIPLPPWALIAMAVVAGLLLLTCCFCICKKCCCKKKKNKKEKGKGMKNAMNMKDMKGGQDDDDAETGLTEGEGEGEEEKEPENLGKLQFSLDYDFQANQLTVGVLQAAELPALDMGGTSDPYVKVFLLPDKKKKYETKVHRKTLNPAFNETFTFKVPYQELAGKTLVMAIYDFDRFSKHDIIGEVKVPMNTVDLGQPIEEWRDLQGGEKEEPEKLGDICTSLRYVPTAGKLTVCILEAKNLKKMDVGGLSDPYVKIHLMQNGKRLKKKKTTVKKKTLNPYFNESFSFEIPFEQIQKVQVVVTVLDYDKLGKNEAIGKIFVGSNATGTELRHWSDMLANPRRPIAQWHSLKPEEEVDALLGKNK

Variants of: B1
Settings: with bxb_clobo botB

Row | Variant | effect of a mutation on the interaction
1 | F54A | disrupting interaction strength
2 | F55A | disrupting interaction strength
3 | F47A | disrupting interaction strength
